Laboratory results as given in patent US20200024330A1.

Tests used:
[1] = molecular target: Env of the clade AE HIV-1 pseudoviruses of the cross-clade 162-pseudovirus panel (n = 10); assay: cell-based or functional assay
[2] = molecular target: JR-FL gp120 ΔV3 (HIV-1 (isolate JR-FL)); assay: ELISA on coated gp120; EC50 by nonlinear regression
[3] = molecular target: HIV-1 Env of isolate MGRM-A-008 (HIV-1); assay: cell-based or functional assay
[4] = molecular target: HIV-1 Env of isolate 92RW008 (HIV-1); assay: cell-based or functional assay
[5] = molecular target: HIV-1 Env of isolate 92WR020 (HIV-1); assay: cell-based or functional assay
[6] = molecular target: HIV-1 JRCSF envelope glycoprotein (Env) (HIV-1) (UniProt P20871); assay: cell-based or functional assay
[7] = molecular target: HIV-1 Env of isolate 92UG037 (HIV-1); assay: cell-based or functional assay
[8] = molecular target: HIV-1 Env of isolate MGRM-A-012 (HIV-1); assay: cell-based or functional assay
[9] = molecular target: HIV-1 Env of isolate 92UG031 (HIV-1); assay: cell-based or functional assay
[10] = molecular target: HIV-1 APV17 envelope glycoprotein (Env) (HIV-1); assay: cell-based or functional assay
[11] = molecular target: HIV-1 MGRM-A-010 envelope glycoprotein (Env) (HIV-1); assay: cell-based or functional assay
[12] = molecular target: HIV-1 Env of isolate 92WR021 (HIV-1); assay: cell-based or functional assay
[13] = molecular target: HIV-1 Env of isolate MGRM-AE-002 (HIV-1); assay: cell-based or functional assay
[14] = molecular target: HIV-1 Env of isolate MGRM-AE-001 (HIV-1); assay: cell-based or functional assay
[15] = molecular target: HIV-1 APV6 envelope glycoprotein (Env) (HIV-1); assay: cell-based or functional assay
[16] = molecular target: HIV-1 Env of isolate 92WR009 (HIV-1); assay: cell-based or functional assay
[17] = molecular target: HIV-1 Env of isolate 94KE105 (HIV-1); assay: cell-based or functional assay
[18] = molecular target: HIV-1 Env of isolate 92WR026 (HIV-1); assay: cell-based or functional assay
[19] = molecular target: HIV-1 Env of isolate MGRM-A-013 (HIV-1); assay: cell-based or functional assay
[20] = molecular target: HIV-1 Env of isolate MGRM-A-010 (HIV-1); assay: cell-based or functional assay
[21] = molecular target: HIV-1 Env of isolate MGRM-A-001 (HIV-1); assay: cell-based or functional assay
[22] = molecular target: HIV-1 92RW020 envelope glycoprotein (Env) (HIV-1); assay: cell-based or functional assay
[23] = molecular target: HIV-1 Env of isolate 92BR020 (HIV-1); assay: cell-based or functional assay
[24] = molecular target: HIV-1 Env of isolate MGRM-A-004 (HIV-1); assay: cell-based or functional assay
[25] = molecular target: HIV-1 APV13 envelope glycoprotein (Env) (HIV-1); assay: cell-based or functional assay
[26] = molecular target: HIV-1 Env of isolate 93UG077 (HIV-1); assay: cell-based or functional assay
[27] = molecular target: HIV-1 Env of isolate 93WR029 (HIV-1); assay: cell-based or functional assay
[28] = molecular target: HIV-1 Env of isolate MGRM-A-007 (HIV-1); assay: cell-based or functional assay
[29] = molecular target: HIV-1 MGRM-C-026 envelope glycoprotein (Env) (HIV-1); assay: cell-based or functional assay
[30] = molecular target: HIV-1 Env of isolate 92WR024 (HIV-1); assay: cell-based or functional assay
[31] = molecular target: HIV-1 Env of isolate MGRM-A-003 (HIV-1); assay: cell-based or functional assay
[32] = molecular target: HIV-1 Env of isolate MGRM-A-006 (HIV-1); assay: cell-based or functional assay
[33] = molecular target: HIV-1 92BR020 envelope glycoprotein (Env) (HIV-1); assay: cell-based or functional assay
[34] = molecular target: HIV-1 93UG077 envelope glycoprotein (Env) (HIV-1); assay: cell-based or functional assay
[35] = molecular target: HIV-1 93IN905 envelope glycoprotein (Env) (HIV-1); assay: cell-based or functional assay
[36] = molecular target: HIV-1 Env of isolate 94UG103 (HIV-1); assay: cell-based or functional assay
[37] = molecular target: HIV-1 Env of isolate VLGCA1 (HIV-1); assay: cell-based or functional assay
[38] = molecular target: HIV-1 NL43 envelope glycoprotein (Env) (HIV-1); assay: cell-based or functional assay
[39] = molecular target: HIV-1 Env of isolate MGRM-A-009 (HIV-1); assay: cell-based or functional assay
[40] = molecular target: HIV-1 Env of isolate MGRM-A-014 (HIV-1); assay: cell-based or functional assay

B1: PGT-128 (antibody, V domains shown)
VH: QPQLQESGPTLVEASETLSLTCAVSGDSTAACNSFWGWVRQPPGKGLEWVGSLSHCASYWNRGWTYHNPSLKSRLTLALDTPKNLVFLKLNSVTAADTATYYCARFGGEVLRYTDWPKPAWVDLWGRGTLVTVSS
VL: QSALTQPPSASGSPGQSITISCTGTSNNFVSWYQQHAGKAPKLVIYDVNKRPSGVPDRFSGSKSGNTASLTVSGLQTDDEAVYYCGSLVGNWDVIFGGGTKLTVL
Work on B1 yielded a Median IC50 against viruses neutralized with an IC50 <50 µg/ml [1] of 0.05 µg/mL and an EC50 [2] of 7.8 µg/mL.

B2: PGT-123 (antibody, V domains shown)
VH: QLHLQESGPGLVKPPETLSLTCSVSGASINDAYWSWIRQSPGKRPEWVGYVHHSGDTNYNPSLKRRVTFSLDTAKNEVSLKLVDLTAADSATYFCARALHGKRIYGIVALGELFTYFYMDVWGKGTAVTVSS
VL: SSMSVSPGETAKISCGKESIGSRAVQWYQQKPGQPPSLIIYNNQDRPAGVPERFSASPDFRPGTTATLTITNVDAEDEADYYCHIYDARGGTNWVFDRGTTLTVL
Binder B2 has an IC50 (µg/mL), pseudovirus neutralization [3] greater than 50 µg/mL, an IC50 (µg/mL), pseudovirus neutralization [4] of 0.003 µg/mL and an IC50 (µg/mL), pseudovirus neutralization [5] of 0.002 µg/mL. It also gave an IC50 neutralization [6] of 0.0423 µg/mL, an IC50 (µg/mL), pseudovirus neutralization [7] of 0.023 µg/mL and an IC50 (µg/mL), pseudovirus neutralization [8] of 0.192 µg/mL. For the same binder, the IC50 (µg/mL), pseudovirus neutralization [9] was greater than 50 µg/mL, the IC50 neutralization [10] was 0.18 µg/mL and the IC50 neutralization [11] was 0.492 µg/mL. For the same binder, the IC50 (µg/mL), pseudovirus neutralization [12] was 0.005 µg/mL, the IC50 (µg/mL), pseudovirus neutralization [13] was greater than 50 µg/mL and the IC50 (µg/mL), pseudovirus neutralization [14] was greater than 50 µg/mL. For the same binder, the IC50 neutralization [15] was 0.0328 µg/mL, the IC50 (µg/mL), pseudovirus neutralization [16] was 15.7 µg/mL and the IC50 (µg/mL), pseudovirus neutralization [17] was 0.024 µg/mL. It also gave an IC50 (µg/mL), pseudovirus neutralization [18] of 0.012 µg/mL, an IC50 (µg/mL), pseudovirus neutralization [19] of 0.565 µg/mL and an IC50 (µg/mL), pseudovirus neutralization [20] of 0.705 µg/mL. For the same binder, the IC50 (µg/mL), pseudovirus neutralization [21] was greater than 50 µg/mL, the IC50 neutralization [22] was 0.0038 µg/mL and the Primary Neutralization Index (B cell culture well 4858 P8) [23] was 2.8. The IC50 (µg/mL), pseudovirus neutralization [24] was greater than 50 µg/mL, the IC50 neutralization [25] was 0.222 µg/mL and the IC50 (µg/mL), pseudovirus neutralization [26] was 0.028 µg/mL. The IC50 (µg/mL), pseudovirus neutralization [27] was greater than 50 µg/mL, the IC50 (µg/mL), pseudovirus neutralization [28] was greater than 50 µg/mL and the IC50 neutralization [29] was 0.0031 µg/mL. It also gave an IC50 (µg/mL), pseudovirus neutralization [30] greater than 50 µg/mL, an IC50 (µg/mL), pseudovirus neutralization [31] of 0.495 µg/mL and an IC50 (µg/mL), pseudovirus neutralization [32] greater than 50 µg/mL. It also gave an IC50 neutralization [33] of 0.013 µg/mL, an IC50 neutralization [34] of 0.0303 µg/mL and an IC50 neutralization [35] of 0.0071 µg/mL. It also gave an IC50 (µg/mL), pseudovirus neutralization [36] of 0.678 µg/mL, a Primary Neutralization Index (B cell culture well 4858 P8) [36] of 1.1 and an IC50 (µg/mL), pseudovirus neutralization [37] greater than 50 µg/mL. For the same binder, the IC50 neutralization [38] was greater than 10 µg/mL, the IC50 (µg/mL), pseudovirus neutralization [39] was 0.004 µg/mL and the IC50 (µg/mL), pseudovirus neutralization [40] was 0.003 µg/mL.
